Stoichiometry N data for one molecule are collected here from article PMC9926122.

The term stoichiometry N denotes a count of units in the complex or per binding partner.

For this test, the target named is T1, recombinant EB1 (HS-AFM and microtubule experiments) (human), Q15691.
T1 chain: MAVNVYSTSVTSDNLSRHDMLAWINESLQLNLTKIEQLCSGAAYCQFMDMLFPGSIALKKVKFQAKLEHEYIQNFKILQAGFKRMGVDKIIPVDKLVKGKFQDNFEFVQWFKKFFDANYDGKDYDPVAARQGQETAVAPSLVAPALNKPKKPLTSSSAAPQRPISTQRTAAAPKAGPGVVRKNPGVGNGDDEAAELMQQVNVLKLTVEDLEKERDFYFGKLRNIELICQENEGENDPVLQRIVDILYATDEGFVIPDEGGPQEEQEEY
As to the kind of experiment: high-speed atomic force microscopy (HS-AFM); proteins (10-30 nM; 10 nM in the frames shown) in BRB80 buffer (80 mM Pipes, 1 mM EGTA, 1 mM MgCl2, pH 6.9) on mica, tapping mode, 150 ms per frame; EB1 alone, Ska1 alone and their mixture. The following applies: remark: other sources report otherwise.

B1: recombinant EB1 (HS-AFM and microtubule experiments), Q15691 1-268 (natural protein)
chain: T1 chain
Consider B1, for which the stoichiometry N came to 2.
